Here are results for 30 sequences from the nanobody polyreactivity screen of Harvey et al. (2022).

The data set is described as follows: yeast display, Sf9 membrane polyspecificity reagent, FACS + sequencing; frameworks hold sequencing errors. Put shortly:
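After 36–48 hours of galactose induction, yeast (Saccharomyces cerevisiae BJ5465) displaying a synthetic nanobody library were stained at 4 °C for 1 hour with 10% biotinylated, detergent-solubilized Sf9 membrane reagent. Streptavidin microbeads enriched the stained cells before FACS sorting into low and high (top ~1%) gates on anti-HA and streptavidin fluorescence. Each clone's polyreactivity label reflects its gate of origin.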
Consider “QVQLVESGGGLVQAGGSLRLSCAASGFTFNSYAMGWYRQAPGKERELVAAISSSGGRTYYADSVKGRFTISRDNAKNTVYFQMNSLKPEDTAVYYCNAVLVSYYSVGYDYWGQGSQVTVSS”, for which the “polyreactivity (PSR sort gate)” value is given as “high polyreactivity”.
Consider “QVQLVESGGGLVQAGGSLRLSCAASGFTFNSYAMGWYRQAPGKERELVAAITSSGGRTYYADSVKGRFTISRDNAKNTVYLQMNSLKPEDTAVYYCAARRGGKVATIYDYWGQGTQVTVSS”, for which the “polyreactivity (PSR sort gate)” value was “low polyreactivity”.
In the case of “QVQLVESGGGLVQAGGSLRLSCAASGFTFNTNAMGWYRQAPGKERELVAAITSSGGSTYYADSVKGRFTISRDNAKNTVYLQMNSLKPEDTAVYYCNADVTLRLWAYYYYRYNYWGQGTQVTVSS”, the “polyreactivity (PSR sort gate)” value is on record as “low polyreactivity”.
In the case of “QVQLVESGGGLVQAGGSLRLSCAASGFTFNVYAMGWYRQAPGKERELVARITRRGGSTYYADSVKGRFTISRDNAKNTVYLQMNSLKPEDTAVYYCNADSPVVSGRGGRRSAYLNDYWGQGTKVTVSS”, the “polyreactivity (PSR sort gate)” value is given as “high polyreactivity”.
In the case of “QVQLVESGGGLVQAGGSLRLSCAASGFTFNWYAMGWYRQAPGKERELVAAINSSGGNTYYADSVKGRFTISRDNAKNTVYLQMNSLKPEDTAVYYCAALLWGYVAFDYWGQGTQVTVSS”, the “polyreactivity (PSR sort gate)” value is recorded as “high polyreactivity”.
As for “QVQLVESGGGLVQAGGSLRLSCAASGFTFNYNTMGWYRQAPGKERQLVAAISRSGGSTYYADSVKGRITISRDNAKNTVYLQMNSLKPEDTAVFYCAKDTYYPSSRYNRYYYWGQGTQVTVSS”, the entry is “high polyreactivity”; as for “QVQLVESGGGLVQAGGSLRLSCAASGFTFNYYAMGWYRQAPGKERELVAAISGRGGSTYYADSVKGRFTISRDNAKNTVYLQMNSLIPEDTAVYYCAADYWYDYYSTEYDYWGQGTQVTVSS”, “low polyreactivity”; as for “QVQLVESGGGLVQAGGSLRLSCAASGFTFPAYTMGWYRQAPGKERELVSAITSSGGNTYYADSVKGRFTISRDNAKNTVYLQMNSLKPEDTAVYYCSTVSVRGPSYDHVRYDYWGQGTQVTVSS”, “low polyreactivity”.
Regarding “QVQLVESGGGLVQAGGSLRLSCAASGFTFPDYAMGWYRQAPGKERELVAAISSDGSTYYADSVKGRFTISRDNAKNTVYLQMNSLKPEDTAVYYCAAYVVWLYGYDYWGQGTKVTVSS”, the “polyreactivity (PSR sort gate)” value is “low polyreactivity”.
For “QVQLVESGGGLVQAGGSLRLSCAASGFTFPFYTMGWYRQAPGKERELVAAISRGGSTNYADSVKGRFTISRDNAKNTVYLQMNSLKPEDTAVSYCNKRYYRDLIGYYWGQGTQVTVSS”, the “polyreactivity (PSR sort gate)” value is given as “high polyreactivity”.
On to “QVQLVESGGGLVQAGGSLRLSCAASGFTFPIYAMGWYRQAPGKEREFVAAITRSGVSTYYADSVKGRFTISRDNAKNTVYLQMNSLKPEDTAVYYCAARYKGRAFWMDYWGQGTQVTVSS”, for which the “polyreactivity (PSR sort gate)” value is on record as “high polyreactivity”.
For “QVQLVESGGGLVQAGGSLRLSCAASGFTFPNAMGWYRQAPGKERELVATISSSGGSTYYADSVKGRFTISRDNAKNTVYLQMNSLKPEDTAVYYCAARTRQYWIYRAYRDDYWGQGTQVTVSS”, the “polyreactivity (PSR sort gate)” value is on record as “low polyreactivity”.
As for “QVQLVESGGGLVQAGGSLRLSCAASGFTFPPYAMGWYIQAPGKERELVAGISWIGSSTYYADSVKGRFTISRDNAKNTVYLQMNSLKPEDTAVYYCNARYLLFAGGRRYYWGQGTQVTVSS”, the entry is “high polyreactivity”; as for “QVQLVESGGGLVQAGGSLRLSCAASGFTFPRYAMGWYRQAPGKERELVAAITVGGGRTYYADSVKGRFTISRDNAKNTVYLQMNSLKPEDTAVYYCAADSHASTYDYWGQGTQVTVSS”, “low polyreactivity”; as for “QVQLVESGGGLVQAGGSLRLSCAASGFTFPRYAMGWYRQAPGKERELVAVITRRGGSTYYADSVKGRFTISRDNAKNTVYLQMNSLKPEDTAVYDCAASDPSNKSSRPGYSYDSDSWGQGTQVTVSS”, “high polyreactivity”.
In the case of “QVQLVESGGGLVQAGGSLRLSCAASGFTFPSYTMGWYRQAPGKERELVAAISWSGGRTYYADSVKGRFTISRDNAKITVYLQKNSLKPEETAVYYCAAGYRTGGDSGDYWGQGTQVTVSS”, the “polyreactivity (PSR sort gate)” value is reported as “high polyreactivity”.
Regarding “QVQLVESGGGLVQAGGSLRLSCAASGFTFPTYAMVWYRQAPGKERELVAAITRGGSTYYADSVKGRFTISRDNAKYTVYLQMNSLKPEDTAVYYCAADDPWYEEDYWGQGTQVTVSS”, the “polyreactivity (PSR sort gate)” value is “low polyreactivity”.
As to “QVQLVESGGGLVQAGGSLRLSCAASGFTFPWYAMGWYRQAPGKERELVASISYRGDSTYYADSVKGRFTISRDNAKNTVYLQMNSLKPEDTAVYYCNTRLASYYLPGFDYWGQGTQVTVSS”, the “polyreactivity (PSR sort gate)” value is reported as “low polyreactivity”.
The entry for “QVQLVESGGGLVQAGGSLRLSCAASGFTFPYYAMGWYRQAPGKERELVAAISKSGGSTYFADSVKGRFTISRDNAKNTVYLQMNSLKPEDTAVYYCAAQGGSKYRGYYYWGQGTQVTVSS” is “high polyreactivity”; for “QVQLVESGGGLVQAGGSLRLSCAASGFTFPYYAMGWYRQAPVKERELVAAISYNGGSTYYADSVKGRFTISRDNAKNNVYLQMNSLKPEDTAVYYCNAVYYDSGVVGYYYWGQGTQVTVSS” it is “high polyreactivity”.
As to “QVQLVESGGGLVQAGGSLRLSCAASGFTFPYYAVGWYRQAPGKERELVAAISKGGTRTYYADSVKGRFTISRDNAKNTVYLQMNSLKPEDTAVYYCAATRIYQEMDYWGQGTQVTVSS”, the “polyreactivity (PSR sort gate)” value is recorded as “high polyreactivity”.
On to “QVQLVESGGGLVQAGGSLRLSCAASGFTFQDNAMGWYRHAPGKERELVASITGSGGSTYYADSVKGRFTISRDNAKNTVYLQMNSLKPEDTAVYYCAAETYTRSALVLYGSREMEYWGQGTQVTVSS”, for which the “polyreactivity (PSR sort gate)” value is reported as “low polyreactivity”.
For the sequence “QVQLVESGGGLVQAGGSLRLSCAASGFTFQFYDMGWYRQAPGTEREFVATITSSGGSTYYADSVKGRFTISRDNAKNTVYLQMNSLKPEDPAVYYCANDKLFFYRVGSDYWGQGTQVTVSS”, the “polyreactivity (PSR sort gate)” value is “low polyreactivity”.
Consider “QVQLVESGGGLVQAGGSLRLSCAASGFTFQRYAMGWYRQAPGKERELVADISRSGGSTYYADSVKGRFTISRDNAKNTVYLQMNSLKPEDTAVYYCAAGYPGYDSYYKFYYWGQGTQVTVSS”, for which the “polyreactivity (PSR sort gate)” value is recorded as “high polyreactivity”.
“QVQLVESGGGLVQAGGSLRLSCAASGFTFQSYAMGWYRQAPGKERELVATIRTRGGSTSYADSVKGRFTISRDNAKNTVYLQMNSLKPEDTAVYYCNGRLSYRSAWYYGGDRYDYWGQGTQVTVSS”: the “polyreactivity (PSR sort gate)” value was “high polyreactivity”.
Consider “QVQLVESGGGLVQAGGSLRLSCAASGFTFQTYAMGWYRQAPGKERELVATINSSGGGTYYADSVKGRFTISRDNAKNTVYLQMNSLKPEDTAVYYCAADAVWFVGQAFDISDSTTYGYWGQGTQVTVSS”, for which the “polyreactivity (PSR sort gate)” value is “low polyreactivity”.
As to “QVQLVESGGGLVQAGGSLRLSCAASGFTFQVNTMGWYRQAPGKERELVAAISWSGGSTYYADSVKGRFTISRDNAKNTVYLQMNSLKPEDTAVYYCNAVPVSYRGGYWGQGTQVTVSS”, the “polyreactivity (PSR sort gate)” value was “low polyreactivity”.
With “QVQLVESGGGLVQAGGSLRLSCAASGFTFRANGMGWYRQAPGKERELVATITSGGTTNYADSVKGRFTISRDNAKNTVYFQMNSLKPEDTAVLYCAKRFGPAYFRLYDYWGQGTQVTVSS”, the “polyreactivity (PSR sort gate)” value was “low polyreactivity”.
Take “QVQLVESGGGLVQAGGSLRLSCAASGFTFRANGMGWYRQAPGKERELVATITSGGTTNYADSVKGRFTISRDNAKNTVYLQMNSLKPEDTAVYYCAKRFGPAYFRLYDYWGQGTQVTVSS”: the “polyreactivity (PSR sort gate)” value was “low polyreactivity”.
Take “QVQLVESGGGLVQAGGSLRLSCAASGFTFRAYAMGWYRPAPAKERELVAAISTGGGSTYYADSVKGRFTISRDIAKHTVYLQLNSLKPEDTAVYYCNALPQRRYYYWGQGTQVTVSS”: the “polyreactivity (PSR sort gate)” value was “high polyreactivity”.
